Test results published in PMC3942467.

Molecular target: recombinant C-terminal fragment (residues 284-707) of nucleolin (nucleolin-C) (UniProt P19338)
Experiment: SPR; Biacore 3000; nucleolin-C amine-coupled on CM4 chip (~540 RU); FGF1 or FGF2 10-320 nM in PBS with 0.1 mg/ml BSA, 0.005% P20, pH 7.3, 25 C, 30 ul/min; no fit to 1:1 Langmuir, constants by Interaction Map (two parallel processes); apparent/approximate

Sequence of UniProt P19338 (P19338 284-707): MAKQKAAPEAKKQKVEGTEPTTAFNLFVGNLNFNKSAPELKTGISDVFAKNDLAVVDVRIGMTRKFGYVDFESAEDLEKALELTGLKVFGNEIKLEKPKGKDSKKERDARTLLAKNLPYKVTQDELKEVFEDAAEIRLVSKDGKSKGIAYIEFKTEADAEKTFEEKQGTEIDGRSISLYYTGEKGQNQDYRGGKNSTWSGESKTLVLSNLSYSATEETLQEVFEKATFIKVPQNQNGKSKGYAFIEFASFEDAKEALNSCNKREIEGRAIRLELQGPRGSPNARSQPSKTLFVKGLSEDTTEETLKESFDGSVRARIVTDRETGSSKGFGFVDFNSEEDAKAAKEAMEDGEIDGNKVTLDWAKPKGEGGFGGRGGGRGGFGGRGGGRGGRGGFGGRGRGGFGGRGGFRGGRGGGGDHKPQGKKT

KD, stronger of two parallel binding processes (apparent): 40 nM
KD, weaker of two parallel binding processes (approximate): 480 nM
ka, stronger of two parallel binding processes: 18000 M⁻¹ s⁻¹
ka, weaker of two parallel binding processes: 1.7e+06 M⁻¹ s⁻¹
kd, stronger of two parallel binding processes: 0.0007 s⁻¹
kd, weaker of two parallel binding processes: 0.83 s⁻¹
Substance: recombinant FGF1, truncated form (Ala-FGF1 21-154), wild type (ligand)
